Measured values reported in patent US20220135701A1 (Genentech, published 2022).
Read-outs that look alike come from different tables or passages of the source.

What was measured:
human MerTK [1] = target: T1, human MerTK (human, UniProt Q12866 26-499); experiment: SPR BIAcore T200, Ab captured, 37C
T1 construct: also called HuMER
T1 sequence: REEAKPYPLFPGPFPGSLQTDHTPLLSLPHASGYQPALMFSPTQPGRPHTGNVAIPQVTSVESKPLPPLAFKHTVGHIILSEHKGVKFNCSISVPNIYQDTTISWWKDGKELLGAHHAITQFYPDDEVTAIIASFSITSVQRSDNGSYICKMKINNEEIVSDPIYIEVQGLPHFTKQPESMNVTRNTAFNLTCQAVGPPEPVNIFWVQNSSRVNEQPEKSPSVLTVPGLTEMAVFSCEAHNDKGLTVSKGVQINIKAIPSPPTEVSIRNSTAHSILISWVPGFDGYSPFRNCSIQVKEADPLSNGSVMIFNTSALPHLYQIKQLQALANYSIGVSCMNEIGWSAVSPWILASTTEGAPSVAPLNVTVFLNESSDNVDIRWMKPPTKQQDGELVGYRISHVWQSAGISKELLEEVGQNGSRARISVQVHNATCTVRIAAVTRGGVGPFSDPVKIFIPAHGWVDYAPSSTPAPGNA
Description: (§1) All binding affinity determinations were obtained using Surface Plasmon Resonance (SPR) measurements from a BIAcore™-T200 instrument. Briefly, each rabbit or humanized antibody was captured to achieve approximately 100 RU (Response Units). Then, 3-fold serial dilutions of MerTK from various species (0.4 nM to 100 nM) diluted in HBS-EP buffer (0.01M HEPES pH 7.4, 0.15M NaCl, 3 mM EDTA and 0.05% v/v surfactant P20) was injected into the BIAcore™-T200 instrument at 25° C. or 37° C. with a flow rate of 30 μl/min. Association rates (kₒₙ) and dissociation rates (koff) were calculated using a simple one-to-one Langmuir binding model (BIAcore T200 evaluation software version 2.0). The equilibrium dissociation constant (KD) was calculated as the ratio koff/kₒₙ.

cynomolgus monkey MerTK = target: T2, cynomolgus monkey MerTK (cynomolgus monkey, UniProt A0A2K5V1H9 32-505); experiment: SPR BIAcore T200, Ab captured, 37C
T2 construct: Soluble analyte in SPR; also called Cyno MerTK
T2 sequence: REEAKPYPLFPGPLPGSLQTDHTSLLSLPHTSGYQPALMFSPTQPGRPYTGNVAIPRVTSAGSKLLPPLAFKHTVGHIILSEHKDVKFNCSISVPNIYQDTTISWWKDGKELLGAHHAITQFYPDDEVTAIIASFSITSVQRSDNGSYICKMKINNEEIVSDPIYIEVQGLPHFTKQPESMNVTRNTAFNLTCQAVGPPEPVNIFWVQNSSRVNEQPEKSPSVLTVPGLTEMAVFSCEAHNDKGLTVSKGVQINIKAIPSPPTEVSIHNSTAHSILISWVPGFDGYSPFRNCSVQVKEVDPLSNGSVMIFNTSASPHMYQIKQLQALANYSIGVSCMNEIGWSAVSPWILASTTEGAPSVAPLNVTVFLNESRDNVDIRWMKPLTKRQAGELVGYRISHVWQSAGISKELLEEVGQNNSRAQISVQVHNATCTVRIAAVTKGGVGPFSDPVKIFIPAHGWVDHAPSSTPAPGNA
Description: as §1

human MerTK [2] = target: T1, human MerTK; experiment: SPR BIAcore T200, Ab captured on protein A chip, 25C
From the text: (§2) For binding affinity determinations of anti-MerTK antibodies of the present disclosure as a control along with commercial MerTK antibodies, Surface Plasmon Resonance (SPR) measurement with a BIAcore™-T200 instrument was used. First, two rabbit antibodies (Y323 and 10g86_D21F11) and the anti-MerTK antibody h13B4.v16 were captured by protein A sensor chip, and eight mouse antibodies (A3KCAT,2D2,7E5G1,7N-20,590H11G1E3, MAB891, MAB8911 and MAB8912-100) were captured by goat anti-mouse IgGs sensor chip respectively on each flow cell to achieve approximately 100RU. Three-fold serial dilutions of human MerTK (0.4 nM to 100 nM) were injected in HBS-EP buffer (0.01M HEPES pH 7.4, 0.15M NaCl, 3 mM EDTA and 0.05% v/v surfactant P20) at 25° C. with a flow rate of 50 μl/min to record the binding response as a function of time. The sensorgram was fitted with one-to-one Langmuir binding model to calculate association rates (kₒₙ) and dissociation rates (koff) (BIAcore T200 evaluation software version 2.0). The binding affinity (equilibrium dissociation constant (KD)) was calculated as the ratio koff/kₒₙ.

[3] = target: T3, human MerTK on human macrophages (human, UniProt Q12866 21-999); experiment: cell-based or functional assay
T3 sequence: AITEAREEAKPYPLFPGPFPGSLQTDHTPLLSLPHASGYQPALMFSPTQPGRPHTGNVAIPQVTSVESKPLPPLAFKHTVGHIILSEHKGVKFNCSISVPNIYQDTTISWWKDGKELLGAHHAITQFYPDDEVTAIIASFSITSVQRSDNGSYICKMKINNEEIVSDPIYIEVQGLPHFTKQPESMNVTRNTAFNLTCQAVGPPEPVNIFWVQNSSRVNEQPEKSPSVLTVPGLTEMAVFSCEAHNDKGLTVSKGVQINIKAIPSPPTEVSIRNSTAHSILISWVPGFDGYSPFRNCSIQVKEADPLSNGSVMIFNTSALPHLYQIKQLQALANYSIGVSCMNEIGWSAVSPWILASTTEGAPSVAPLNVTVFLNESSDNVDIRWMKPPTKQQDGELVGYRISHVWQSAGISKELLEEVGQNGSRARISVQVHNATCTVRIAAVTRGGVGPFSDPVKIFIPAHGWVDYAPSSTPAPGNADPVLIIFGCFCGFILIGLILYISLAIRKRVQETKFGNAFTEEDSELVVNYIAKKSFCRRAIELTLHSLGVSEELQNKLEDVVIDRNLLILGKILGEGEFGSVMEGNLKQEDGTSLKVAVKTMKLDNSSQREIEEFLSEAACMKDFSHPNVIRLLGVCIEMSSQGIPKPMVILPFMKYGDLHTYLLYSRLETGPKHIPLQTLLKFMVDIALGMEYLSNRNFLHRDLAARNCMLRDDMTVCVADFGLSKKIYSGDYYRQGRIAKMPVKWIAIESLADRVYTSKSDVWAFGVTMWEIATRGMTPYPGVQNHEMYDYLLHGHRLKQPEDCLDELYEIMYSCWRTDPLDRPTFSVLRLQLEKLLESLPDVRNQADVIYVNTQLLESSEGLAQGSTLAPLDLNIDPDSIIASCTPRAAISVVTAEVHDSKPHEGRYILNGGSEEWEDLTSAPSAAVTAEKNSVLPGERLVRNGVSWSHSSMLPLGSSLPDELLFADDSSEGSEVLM

[4] = target: T3, human MerTK on human macrophages; experiment: cell-based or functional assay; remark: listed apart in the source
human MerTK [5] = target: T1, human MerTK; experiment: SPR (BIAcore kinetic screen), h13B4.v16 captured on protein A chip, hMerTK as analyte, 25°C, 1:1 binding model [Cont.]
From the text: as §2

[6] = target: T3, human MerTK on human macrophages; experiment: cell-based or functional assay; remark: listed apart in the source

B1: h13B4.v16 (antibody, V domains shown)
VH: EVQLVESGEGLVQPGGSLRLSCAASGFSLSSYAMGWVRQAPGKGLEYVGIINSYGNTYYANWAKGRFTISRDNSKNTVYLQMGSLRAEDMAVYYCARDPGVSSNLWGRGTLVTVSS
VL: DIQMTQSPSTLSASVGDRVTITCQASQNIYSGLAWYQQKPGKAPKLLIYGASKLASGVPSRFSGSGSGTEFTLTISSLQPDDFATYYCQATYYSSNSVAFGGGTKVEIK
notes: Humanized, human IgG1; also called 13B4 Fully Humanized; 13B4 Humanized polished mAb
Human MerTK [1]
  Kd: 5.1 nM
Cynomolgus monkey MerTK
  Kd: 5.7 nM
Human MerTK [2]
  Kd: 1.6 nM
[3]
  IC50 (nM), efferocytosis by human macrophages, Average (3 Donors): 0.08 nM
[4]
  IC50 (nM), efferocytosis by human macrophages, Average (3 Donors): 0.08 nM
  IC50 (nM), efferocytosis by human macrophages, Donor A: 0.07 nM
  IC50 (nM), efferocytosis by human macrophages, Donor B: 0.08 nM
  IC50 (nM), efferocytosis by human macrophages, Donor C: 0.09 nM
  Max Inhibition (%), efferocytosis by human macrophages, Average (3 Donors): 83%
  Max Inhibition (%), efferocytosis by human macrophages, Donor A: 91%
  Max Inhibition (%), efferocytosis by human macrophages, Donor B: 82%
  Max Inhibition (%), efferocytosis by human macrophages, Donor C: 77%
Human MerTK [5]
  Kd: 1.63 nM
  koff: 0.000151 s⁻¹
  kon: 92400 M⁻¹ s⁻¹
[6]
  fold potency in inhibiting human macrophage phagocytosis, against h10F7.v16: 5.2 fold
